Source: paper PMC4874009, “Super-resolution microscopy reveals structural diversity in molecular exchange among peptide amphiphile nanofibres” (Nature Communications, 2016)
The star is where a group is joined. Cy3 = disulfo-cyanine carboxylic acid dye; Cy5 = disulfo-cyanine carboxylic acid dye; Palmitoyl = CCCCCCCCCCCCCCCC(=O)*

T1: non-labelled peptide amphiphile (palmitic acid tail, six alanines, three glutamic acids)
T1 construct: designed peptide amphiphile, not a stretch of a natural protein; also called non-labelled PA; unlabelled PA; source: synthetic peptide (Fmoc solid-phase synthesis, purified by reversed-phase HPLC)
T1 peptide: Palmitoyl-AAAAAAEEE-NH2

B1: peptide amphiphile labelled with the sulfonated cyanine dye Cy3 (peptide)
peptide: Palmitoyl-AAAAAAEEEK(Cy3)-NH2
notes: designed peptide amphiphile; Made on MBHA rink amide resin, so the C-terminus is probably an amide (surmised); also called Cy3-PA; PA-Cy3; source: synthetic peptide (Fmoc solid-phase synthesis, purified by reversed-phase HPLC)

How the values were obtained:
[1] = target: T1, non-labelled peptide amphiphile …; assay: FRET or BRET; nanofibres co-assembled from non-labelled PA with Cy3-PA (1 mol%) and Cy5-PA (0, 0.1, 0.2 and 0.5 mol%); 10 mM HEPES pH 7.5, NaCl 150 mM, final PA concentration 0.5 mM; emission spectra at the Cy3 excitation wavelength 520 nm; conditions: both partners purified
[2] = target: B1; assay: as above; conditions: both partners purified

binding result [1] | binding result [2] | Binder
binds | binds | Palmitoyl-AAAAAAEEEK(Cy5)-NH2 (designed peptide amphiphile; Made on MBHA rink amide resin, so the C-terminus is probably an amide (surmised); also called Cy5-PA; PA-Cy5; source: synthetic peptide (Fmoc solid-phase synthesis, purified by reversed-phase HPLC)) [peptide amphiphile labelled with the sulfonated cyanine dye Cy5]
binds | – | B1
